According to the RNAGym collection of RNA variant scans (doi:10.7554/elife.90254):

B1: LINE1-full (parent)
chain: UACGUAGGUGGUUUUCCCCUGAUAGUGCUAAGGGGGCCUGGAAGUUUGGACUGGGCAGAGCUCAACACAGCGUGGCAAAGUGGCUGUGGCUAGACUGCCUCUCUGGAUUCCUCGUCACUCAGCAGGGCAUCUCUGAGAGAAAUGCC

Variants of: B1
Assay: self-cleavage, relative activity (ratio to wild type); higher = more cleavage; in vitro, sequencing; the parent is a self-cleaving ribozyme

Variant | self-cleavage
UACGUAGGUGGUUUUCCCCUGAUAGUGCUAAGGGGGCCUGGAAGUUUGGACUGGGCAGAGCUCAGCACAGCGUGGCAAAGUGGCUGUGGCUAGACUGCCUCUCUGGAUUCCUCGUCACGCAGCAGGGCAUCUCUGAGAGAAAUGCC [A65G U119G] | 0
UACGUAGGUGGUUUUCCCCUGAUAGUGCUAAGGGGGCCCGGAAGUUUGGACUGGGCAGAGCUCAACACAGCGUGGUAAAGUGGCUGUGGCUAGACUGCCUCUCUGGAUUCCUCGUCACUCAGCAGGGCAUCUCUGAGAGAAAUGCC [U39C C76U] | 0.7
UACGUAGGUGGUUUUCCCCUGAUUGUGCUAAGGGGGCCUGGAAGUUUGGACUGGGCAGAGCCCAACACAGCGUGGCAAAGUGGCUGUGGCUAGACUGCCUCUCUGGAUUCCUCGUCACUCAGCAGGGCAUCUCUGAGAGAAAUGCC [A24U U62C] | 0.08
UACGUAGGUGGUUUUCCCAUGAUAGUGCUAAGGGGGCCUGGAAGUUUGGACCGGGCAGAGCUCAACACAGCGUGGCAAAGUGGCUGUGGCUAGACUGCCUCUCUGGAUUCCUCGUCACUCAGCAGGGCAUCUCUGAGAGAAAUGCC [C19A U52C] | 0.51
UACGUAGGUGGUUUUCCCCUGAUAGUGCUAAGGGGGCCUGGAAGUUUGGACUGGGCAGGGCUCAACACAGCGUGGCAAAGUGGCUGUGGCUAGACCGCCUCUCUGGAUUCCUCGUCACUCAGCAGGGCAUCUCUGAGAGAAAUGCC [A59G U96C] | 0.04
UACGUAGGUGGUUUUCCCCUGAUAGUGCUAAGGGGUCCUGGAAGUUUGGACUGGGCAGAGCCCAACACAGCGUGGCAAAGUGGCUGUGGCUAGACUGCCUCUCUGGAUUCCUCGUCACUCAGCAGGGCAUCUCUGAGAGAAAUGCC [G36U U62C] | 0.02
UACGUAGGUGGUUUUCCCCUGAUAGUGCUAAGGGGGCCUGGAAGUUUGGACUGGGCAGAGCACAACACAGCGUGGCAAAGUGGCUGUGGCUAGGCUGCCUCUCUGGAUUCCUCGUCACUCAGCAGGGCAUCUCUGAGAGAAAUGCC [U62A A94G] | 0.04
UACGUAGGUGGUUUUCCCCUGAUAGUGCUAAGGGGGCCUGGAAGUUUGGUCUGGGCAGUGCUCAACACAGCGUGGCAAAGUGGCUGUGGCUAGACUGCCUCUCUGGAUUCCUCGUCACUCAGCAGGGCAUCUCUGAGAGAAAUGCC [A50U A59U] | 0.67
UACGUAGGUGGUUUUCCCCUGAUAGUGCUAAGGGGGCCUGGAAGUUUGGACUGGGCAGAGCUCAACACAGCGUGGCAAAGUGGCUGUGGCUAGACUGCCUCUCUGGAUUCCUCGUCACUCAGCAGGGCAACUCUGAGAGUAAUGCC [U130A A140U] | 1.24
UACGUAGGUGGUUUUCCCCUGAUAGUGCUAAGGGGGCCUGGAAGUUUGGACUGGGCAGAGCUCAACACAGCGUGGCAAAGUGGCCGUGGCUAGACUGCCUCUCUGGAUUCCUCGUCACUCAGCGGGGCAUCUCUGAGAGAAAUGCC [U85C A124G] | 0.13
UACGUAGGUGGUUUUCCCCUGAUAGUGCUAAGGGGGCCUGGAAAUUUGGACUGGGCAGAGCUCAACGCAGCGUGGCAAAGUGGCUGUGGCUAGACUGCCUCUCUGGAUUCCUCGUCACUCAGCAGGGCAUCUCUGAGAGAAAUGCC [G44A A67G] | 0.37
UACGUAGGUGGUUUUCCCCUGAUAGUGCUAAGGGGGCCUGGAAGUUUGGGCUGGGCAGAGCUCAACACAGCGUGGCAAAGUGGCUGUGGCUAGACUGCCUCUCUGGAUUCCUCGUCACUCAACAGGGCAUCUCUGAGAGAAAUGCC [A50G G122A] | 0.83
UACGUAGGUGGUUUUCCCCUGAUAGUGAUAAGGGGGCCUGGAAGUUUGGACUGGGCAGAGCUCAACACAGCGUGGCAAAGUGGCUGUAGCUAGACUGCCUCUCUGGAUUCCUCGUCACUCAGCAGGGCAUCUCUGAGAGAAAUGCC [C28A G88A] | 0
UACGUAGGUGGUUUUCCCCUGAUAGUGCUAAGGGGGCCUGGAGGUUUGGACUGGGCAGAGCUCAACACAGCGUGGCAAAGUGGCUGUGGCUAGACUGCCUCUUUGGAUUCCUCGUCACUCAGCAGGGCAUCUCUGAGAGAAAUGCC [A43G C103U] | 1.25
UACGUAGGUGGUUUUCCCCUGAUAGUGCUAAGGGGGCCUGGAAGUUUGGACUGGGCAGAGCACAACACAGCGUGGCAAAGUGGCUGUGGCUAGACUGCCUCUCUGGAUUCCUCGUCACUCAGCAGGGCACCUCUGAGAGAAAUGCC [U62A U130C] | 0.05
UACGUAGGUGGUUUUCCCUUGAUAGUGCUAAGGGGGCCUGGAAGUUUGGACUGGGCAGAGCUCAACACAGCGUGGCAAAGUGGCUGUGGCUAGACUGCCUCUCUGGAUUCCUCGUCACUCCGCAGGGCAUCUCUGAGAGAAAUGCC [C19U A121C] | 1.02
UACGUAGGUGGUUUUCCCCUGAUAGUGCUAAGGGGGCCUGGAAGUUUGGACUGGGCAGAGCUCAACACAGCGUGGCAAAGUGGCUGUGGCUAGACUGCCUCUCUGGGUUCCUCGUCACUCAGCAGGGCAUCUCUGUGAGAAAUGCC [A107G A136U] | 1.82
UACGUAGGUGGUUUUCCCCUGAUAGCGCUAAGGGGGCCUGGAAGUUUGGACUGGGCGGAGCUCAACACAGCGUGGCAAAGUGGCUGUGGCUAGACUGCCUCUCUGGAUUCCUCGUCACUCAGCAGGGCAUCUCUGAGAGAAAUGCC [U26C A57G] | 1.14
UACGUAGGUGAUUUUCCCCUGAUAGUGCUAAGGGGGCCUGGAAGUUUGGACUGGGCAGAGCUAAACACAGCGUGGCAAAGUGGCUGUGGCUAGACUGCCUCUCUGGAUUCCUCGUCACUCAGCAGGGCAUCUCUGAGAGAAAUGCC [G11A C63A] | 0.01
AACGUAGGUGGUUUUCCCCUGAUAGUGCUAAGGGGGCCUGGAAGUUUGGACUGGGCAGAGCUCAACACAGCGUGGCGAAGUGGCUGUGGCUAGACUGCCUCUCUGGAUUCCUCGUCACUCAGCAGGGCAUCUCUGAGAGAAAUGCC [U1A A77G] | 1.66
